Measured values reported in paper PMC2584968 (Nature, 2007).

Target: HIV-1 gp120 fragment OD1 (HIV-1)
Assay: SPR

B1: broadly neutralizing antibody b12 (antibody, V domains shown)
VH: QVQLVQSGAEVKKPGASVKVSCQASGYRFSNFVIHWVRQAPGQRFEWMGWINPYNGNKEFSAKFQDRVTFTADTSANTAYMELRSLRSADTAVYYCARVGPYSWDDSPQDNYYMDVWGKGTTVIVSS
VL: EIVLTQSPGTLSLSPGERATFSCRSSHSIRSRRVAWYQHKPGQAPRLVIHGVSNRASGISDRFSGSGSGTDFTLTITRVEPEDFALYYCQVYGASSYTFGQGTKLERK
fold faster dissociation rate than on HXBc2 core gp120: ~15 fold
